T1: HA-GPR49 (full-length human GPR49 with an HA-tag inserted at the N-terminus) (human, UniProt O75473 22-907)
T1 construct: Expressed in DG44 cells (line 2B10) and, inducibly with doxycycline, in 293FlpIn T-Rex cells (lines B2, B4); On whole cells in flow cytometry and cytotoxicity assays; as cell lysate in Western blotting and immunoprecipitation; also called human GPR49/DG44 cells (2B10); HA-GPR49-expressing DG44 cell line 2B10; not shown: HA-tag inserted at the N-terminus of GPR49
T1 sequence: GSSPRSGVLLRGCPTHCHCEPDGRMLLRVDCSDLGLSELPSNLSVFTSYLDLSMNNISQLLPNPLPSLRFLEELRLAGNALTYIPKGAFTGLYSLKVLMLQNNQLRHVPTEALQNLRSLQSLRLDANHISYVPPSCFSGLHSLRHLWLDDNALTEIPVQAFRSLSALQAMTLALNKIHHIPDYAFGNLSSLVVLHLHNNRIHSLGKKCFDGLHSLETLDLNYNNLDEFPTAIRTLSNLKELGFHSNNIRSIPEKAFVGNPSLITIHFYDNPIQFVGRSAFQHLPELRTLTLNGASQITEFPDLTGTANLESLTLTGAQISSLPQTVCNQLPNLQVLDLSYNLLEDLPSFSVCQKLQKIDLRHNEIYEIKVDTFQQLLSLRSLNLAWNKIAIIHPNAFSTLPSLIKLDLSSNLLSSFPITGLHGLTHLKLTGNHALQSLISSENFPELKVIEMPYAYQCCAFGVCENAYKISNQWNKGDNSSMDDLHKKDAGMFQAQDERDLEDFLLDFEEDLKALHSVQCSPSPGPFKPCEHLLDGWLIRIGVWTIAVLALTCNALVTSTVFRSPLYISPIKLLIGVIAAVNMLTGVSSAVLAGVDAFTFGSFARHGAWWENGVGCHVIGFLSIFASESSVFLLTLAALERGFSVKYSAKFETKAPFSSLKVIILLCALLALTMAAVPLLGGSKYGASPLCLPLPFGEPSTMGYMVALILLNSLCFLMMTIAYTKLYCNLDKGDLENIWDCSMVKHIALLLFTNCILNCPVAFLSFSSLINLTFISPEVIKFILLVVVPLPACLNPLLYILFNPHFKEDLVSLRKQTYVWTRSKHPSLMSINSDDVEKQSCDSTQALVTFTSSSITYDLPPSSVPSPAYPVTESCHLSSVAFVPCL

T2: mouse GPR49 (mouse, UniProt Q9Z1P4 22-907, limits assumed)
T2 construct: Expressed transiently in 293T cells; the cell lysate was analysed by Western blotting; also called mouse (M) GPR49
T2 sequence (looked up): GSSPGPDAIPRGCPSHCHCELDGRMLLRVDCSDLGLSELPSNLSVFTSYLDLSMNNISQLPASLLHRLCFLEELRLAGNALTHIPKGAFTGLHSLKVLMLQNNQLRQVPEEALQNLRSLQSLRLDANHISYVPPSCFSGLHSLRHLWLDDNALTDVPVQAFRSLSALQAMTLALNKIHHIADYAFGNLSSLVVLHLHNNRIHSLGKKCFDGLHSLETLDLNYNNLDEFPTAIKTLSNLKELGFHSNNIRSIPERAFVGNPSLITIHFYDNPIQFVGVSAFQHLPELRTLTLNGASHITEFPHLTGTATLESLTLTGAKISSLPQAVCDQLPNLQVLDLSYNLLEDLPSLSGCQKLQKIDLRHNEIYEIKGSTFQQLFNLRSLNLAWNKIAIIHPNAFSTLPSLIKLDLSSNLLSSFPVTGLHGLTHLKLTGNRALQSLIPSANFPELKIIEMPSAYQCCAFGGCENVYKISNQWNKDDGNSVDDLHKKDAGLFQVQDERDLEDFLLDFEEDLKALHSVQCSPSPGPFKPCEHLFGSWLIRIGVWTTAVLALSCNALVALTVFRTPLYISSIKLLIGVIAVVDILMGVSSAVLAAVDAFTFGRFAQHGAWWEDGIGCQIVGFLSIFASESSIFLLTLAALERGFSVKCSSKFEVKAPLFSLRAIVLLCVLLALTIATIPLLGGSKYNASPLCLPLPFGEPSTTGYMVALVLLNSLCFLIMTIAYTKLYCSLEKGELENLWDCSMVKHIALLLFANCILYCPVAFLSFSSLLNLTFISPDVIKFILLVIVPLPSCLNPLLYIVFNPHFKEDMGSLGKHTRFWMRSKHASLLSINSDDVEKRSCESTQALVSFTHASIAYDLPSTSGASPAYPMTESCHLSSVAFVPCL

T3: human GPR49 protein (human, UniProt O75473 22-907)
T3 construct: also called LGR5; GPR49 molecule
T3 sequence: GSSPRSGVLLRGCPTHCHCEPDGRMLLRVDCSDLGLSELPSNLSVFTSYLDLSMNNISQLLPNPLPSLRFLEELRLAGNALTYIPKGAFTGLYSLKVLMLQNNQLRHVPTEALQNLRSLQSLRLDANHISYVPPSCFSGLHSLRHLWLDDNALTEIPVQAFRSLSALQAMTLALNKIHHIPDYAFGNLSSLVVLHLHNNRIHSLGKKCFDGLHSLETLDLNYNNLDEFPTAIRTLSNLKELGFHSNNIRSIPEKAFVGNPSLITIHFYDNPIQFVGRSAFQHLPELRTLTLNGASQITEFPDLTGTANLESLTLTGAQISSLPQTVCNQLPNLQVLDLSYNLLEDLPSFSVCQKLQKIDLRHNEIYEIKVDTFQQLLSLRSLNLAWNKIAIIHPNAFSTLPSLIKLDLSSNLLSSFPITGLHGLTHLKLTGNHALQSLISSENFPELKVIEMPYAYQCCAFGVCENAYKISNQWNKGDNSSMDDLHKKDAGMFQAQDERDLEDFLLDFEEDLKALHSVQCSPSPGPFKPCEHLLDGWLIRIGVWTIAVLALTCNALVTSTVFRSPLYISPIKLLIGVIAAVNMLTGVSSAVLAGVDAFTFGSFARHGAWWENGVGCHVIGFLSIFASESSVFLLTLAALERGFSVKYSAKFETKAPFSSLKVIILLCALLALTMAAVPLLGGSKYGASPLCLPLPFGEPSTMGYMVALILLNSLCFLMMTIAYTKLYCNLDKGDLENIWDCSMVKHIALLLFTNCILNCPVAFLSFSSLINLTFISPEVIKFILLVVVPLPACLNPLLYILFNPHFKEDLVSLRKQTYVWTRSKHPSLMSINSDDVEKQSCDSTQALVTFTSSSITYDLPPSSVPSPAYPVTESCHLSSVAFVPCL


Legend:
[1] = molecular target: T1, HA-GPR49 (full-length human GPR49 with …); experiment: flow cytometry, hybridoma supernatant on 2B10 cells against parental DG44
Method: The binding to the human GPR49/DG44 cells (2B 10) was evaluated by flow cytometry using the obtained hybridomas. The cell lines expressing human GPR49 suspended in FACS buffer (2% FBS/PBS/0.05% NaN₃) were diluted to 1×10⁶ cells/mL with FACS buffer, and then aliquoted at 50 μL/well into a Falcon 353910 round-bottom 96-well plate. Hybridoma culture supernatant diluted to a suitable concentration was added to the wells containing the cells and reacted for 60 minutes on ice. Then, the cells were washed once with FACS buffer. Goat F(ab′)₂ fragment anti-mouse IgG(H+ L)-FITC (Beckman Coulter) was added to the wells containing the cells as a secondary antibody, and reacted for 30 minutes on ice. After reaction, the supernatant was removed by centrifugation, and then the cells suspended in 100 μL of FACS buffer were subjected to flow cytometry. A FACS Calibur (Becton Dickinson) was used for flow cytometry. The viable cell population was gated with a forward scatter-side scatter dot blot, an FL1 histogram was made of the cells contained in the population, and binding activity thereof was evaluated.
When the hybridoma supernatants were reacted with 2B 10 in which GPR49 is induced and expressed in DG44 cells and with the parental cell line DG44 respectively, hybridomas that specifically reacted with GPR49-expressing cells were obtained. The hybridomas from these wells were made into single clones by the limiting dilution method. The isotype of each antibody was analyzed using an IsoStrip™ mouse monoclonal antibody isotyping kit (Roche Diagnostics). As a result, 2J18-1N and 2J18-3 were IgM, and 2L7-8, 2L9-3, 2L10-19, 2L13-3, 2L15-12, 2L16-15, 2L18-15, 2L33-6, 2L34-5, 2L36-12, 2T4E-6, 2T9E1#14, 2T15E-2, 2T42E-4, 2T54-2, 2T65-3, 2T37-16, 2U1E-1, 2U2E-2, and 2U4E-11 were IgG1. Culturing of the hybridomas made into single clones was scaled up, and then the antibodies were purified from the culture supernatant using a protein G column in accordance with the manual. The IgM antibodies were purified using a protein L column in accordance with the manual. The purified antibodies were quantified by DC Protein Assay or such.

mouse GPR49 = molecular target: T2, mouse GPR49; experiment: Western blotting
human GPR49 protein = molecular target: T3, human GPR49 protein; experiment: Western blotting of LoVo cell lysate
[2] = molecular target: T1, HA-GPR49 (full-length human GPR49 with …); experiment: immunoprecipitation from 2B10 cell lysate, Western blot detection
Method: To confirm the presence of the 40-kDa and 60-kDa protein bands detected in Western blotting, immunoprecipitation experiments were carried out using GPR49 monoclonal antibodies. Cell lysate prepared by solubilizing HA-GPR49-expressing DG44 cell line 2B10 in NP40 lysis buffer (0.5% NP40, 50 mM Tris-HCl (pH7.5), 150 mM NaCl, protease inhibitor complete mini (Roche)) was used as the sample for immunoprecipitation. The amount of protein included in the cell lysate was quantified by DC Protein Assay using BSA as a standard. A solution containing 2 μg of antibody was added to 500 μL of cell lysate containing 100 μg of protein, and this was reacted at 4° C. for one hour. Additionally, 20 μL of Protein A/G Plus agarose (Santa Cruz) was added and this was reacted overnight. Agarose beads were centrifugated at 1,000×g for one minute, washed twice with 1 mL of PBS, and then antigens bound to the antibodies were eluted by adding 50 μL of 2×SDS-sample buffer and warming at 60° C. for 30 minutes. After centrifuging at 1,000×g for one minutes, 15 μL of the supernatant obtained was subjected to SDS-PAGE. […] As is seen in the lanes for the samples immunoprecipitated using 2L13-3 and 2L36-12, a 40-kDa band and a 60-kDa band in addition to the 100-kDa band could surely be detected using 2U1E-1 and 2U2E-2, respectively. […]

Binder	binding result [1]	binding result (mouse GPR49)	binding result (human GPR49 protein)	binding result [2]
anti-GPR49 monoclonal antibody 2U1E-1 (antibody, mouse IgG1, V domains shown, Mouse IgG1 from hybridoma; light chain amplified with a kappa primer) VH: QVQLQQPGAELVEPGASVKLSCKASGYTFTNYYMYWVKQRPGQGLEWIGGINPNNGGTNFNEKFKSKATLTVDKSSSTAYMQLSSLTSEDSAVYYCTGIYYRYNWHFGVWGAGTTVTVSS VL: DVLMTQTPLSLPVSLGDQASISCRSSQTIVHSNGNTYLEWYLQKPGQSPKLLIYKVSNRFSGVPDRFSGSGSGTDFTLKIYRVEAEDLGIYYCFQGSHVPWTFGGGTKLEIK	binds	binds	binds	
anti-GPR49 monoclonal antibody 2L13-3 (antibody, mouse IgG1, V domains shown, Mouse IgG1 from hybridoma; light chain amplified with a kappa primer) VH: QVQLQQSGAELVRPGTSVKMSCKAAGYTFTNSWIGWVKQRPGHGLEWIGDIYPGGDYTNYNEKFKGKATLTADTSSSTAYMQLSSLTSEDAAIYYCTRGDGYFDYWGQGTTLTVSS VL: DIVMTQSHKFMSTSVGDRVSITCKASQDVSIDVAWYQQRPGQSPKLLIYSASYRYTGVPDRFTGSGSGTDFTFTVSSVQAEDLAVYYCQQHYSTPPTFGGGTKLEIK				binds
anti-GPR49 monoclonal antibody 2U2E-2 (antibody, mouse IgG1, V domains shown, Mouse IgG1 from hybridoma; light chain amplified with a kappa primer) VH: EVKLVESGGDLVKPGGSLKLSCAASGFIFSTYAMSWVRQIPEKRLEWVASISPDGNTFYPDSLKGRFTISRDNVRNILYLQMSSLRSEDTAMYYCAVTGTFAYWGQGTLVTVSG VL: DVLMTQTPLSLPVSLGDQASISCRSSQNILHSDGNTYLEWFLQKPGQSPKLLIFKISNRFPGVPDRFSGSGSGTDFTLKISRVEAEDLGVYYCFQSSHVPYTFGGGTKLEIK	binds	binds	binds	
